What was measured:
[1] = target: T1, HER2/ERBB2 receptor tyrosine kinase (human, UniProt P04626 23-1255); test: co-immunoprecipitation: anti-MUC1-C precipitates of SKBR3 and BT474 lysates, immunoblot (FIG. 1B)
T1 construct: whole, on cells; Endogenous HER2 in cell lysates, detected by anti-HER2 immunoblot of precipitates or GST adsorbates; also called Neu; CD340
From the text: (FIG. 1C). […] Lysates were immunoblotted with the indicated antibodies. […] IP, immunoprecipitated.

[2] = target: T1, HER2/ERBB2 receptor tyrosine kinase; test: GST pull-down from SKBR3 cell lysates, anti-HER2 immunoblot (FIG. 2A, left)
Method: Lysates from SKBR3 (left) and BT474 (right) cells were incubated with the indicated GST or GST-fusion proteins. The adsorbates were immunoblotted (IB) with anti-HER2. Input of the GST proteins was assessed by Coomassie blue staining. […] Lysates were immunoblotted with the indicated antibodies. […] Lysates were immunoblotted with the indicated antibodies. […] Cell number (mean±s.e. of three determinations) was determined by Trypan blue staining. IP, immunoprecipitated.

B1: MUC1 C-terminal subunit (MUC1-C) (other)
chain: GSVVVQLTLAFREGTINVHDVETQFNQYKTEAASRYNLTISDVSVSDVPFPFSAQSGAGVPGWGIALLVLVCVLVALAIVYLIALAVCQCRRKNYGQLDIFPARDTYHPMSEYPTYHTHGRYVPPSSTDRSPYEKVSAGNGGSSLSYTNPAVAATSANL
notes: Endogenous MUC1-C in lysates of SKBR3, BT474, SKBR3R and BT474R human breast cancer cells, precipitated with anti-MUC1-C
B1: binds [1].

B2: GST-MUC1-CD in which the CQC motif had been mutated to AQA (other, not shown: a dimerising Fc or GST; large carriers; small tags and cut ends)
chain: AQARRKNYGQLDIFPARDTYHPMSEYPTYHTHGRYVPPSSTDRSPYEKVSAGNGGSSLSYTNPAVAATSANL
notes: also called MUC1-CD(AQA)
B2: no binding [2].
